From article PMC10208126 (mAbs, 2023)

Legend:
Human IL1RAPL1-Fc = biological target: T1, Human IL1RAPL1-Fc (human, UniProt Q9NZN1 19-357); test: ELISA
T1 sequence (looked up): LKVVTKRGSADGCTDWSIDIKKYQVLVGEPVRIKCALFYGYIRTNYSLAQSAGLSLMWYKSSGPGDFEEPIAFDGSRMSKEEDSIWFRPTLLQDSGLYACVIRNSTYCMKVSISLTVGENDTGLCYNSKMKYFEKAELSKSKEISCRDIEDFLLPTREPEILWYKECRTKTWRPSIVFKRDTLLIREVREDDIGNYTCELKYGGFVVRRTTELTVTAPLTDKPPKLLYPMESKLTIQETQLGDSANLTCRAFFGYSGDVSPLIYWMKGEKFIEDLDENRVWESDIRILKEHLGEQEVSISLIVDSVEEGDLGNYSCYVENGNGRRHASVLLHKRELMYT

Human IL-36R-Fc = biological target: T2, Human IL-36R-Fc (human, UniProt Q9HB29 20-335); test: ELISA
T2 sequence (looked up): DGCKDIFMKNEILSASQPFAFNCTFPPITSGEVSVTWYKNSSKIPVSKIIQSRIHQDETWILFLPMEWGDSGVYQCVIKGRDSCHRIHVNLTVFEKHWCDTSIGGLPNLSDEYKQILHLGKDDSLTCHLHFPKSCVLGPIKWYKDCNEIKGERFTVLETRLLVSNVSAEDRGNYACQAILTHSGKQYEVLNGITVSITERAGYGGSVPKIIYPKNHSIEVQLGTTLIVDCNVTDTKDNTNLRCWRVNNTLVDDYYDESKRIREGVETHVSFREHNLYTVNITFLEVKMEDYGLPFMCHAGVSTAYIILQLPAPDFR

B1: Recombinant full length human IL-38 (ligand, UniProt Q8WWZ1 1-152, looked up)
chain: MCSLPMARYYIIKYADQKALYTRDGQLLVGDPVADNCCAEKICILPNRGLARTKVPIFLGIQGGSRCLACVETEEGPSLQLEDVNIEELYKGGEEATRFTFFQSSSGSAFRLEAAAWPGWFLCGPAEPQQPVQLTKESEPSARTKFYFEQSW
B1: binds (Human IL1RAPL1-Fc); binds (Human IL-36R-Fc).
